Here are results for one molecule from US20070020269A1 (published 2007).

The target in one test is T1, p21-C (UniProt P38936 91-164).
T1 construct: not shown: myc-tag from pcDNA3 vector
The test can be described thus: co-immunoprecipitation (anti-myc IP, anti-flag blot), co-transfected 293T cells. An excerpt: (§1) In order to determine the interacting regions of RX50 and p21, the 293T cells were co-transfected with RX50 and p21, RX50 and p21-D1, RX50 and p21-D2, RX50 and p21-D3, RX50 and p21-C, RX50 and p21-N, respectively. The transfected cells were allowed to grow 24 hrs before lysis. The supernatant was collected by centrifugation. The […] were subjected to immunoprecipitation with anti-myc antibody and Protein G. The product of co-immunoprecipitation was electrophoresised on SDS-PAGE, transferred onto a nitro cellulose membrane, and then subjected to immunoblot with a enzyme-labeled anti-flag antibody. […] It was inferred that the region of p21 interacting with RX50 was located between amino acid residue 40 to 60 of p21.

Another test deals with T2, p21-D3 (UniProt P38936 60-164).
T2 construct: not shown: myc-tag from pcDNA3 vector
T2 sequence (P38936 60-164): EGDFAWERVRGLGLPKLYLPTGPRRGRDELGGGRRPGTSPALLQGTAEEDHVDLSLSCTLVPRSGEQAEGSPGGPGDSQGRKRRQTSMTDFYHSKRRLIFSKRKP
The test is described as above.
Description: as §1

T1 sequence (P38936 91-164): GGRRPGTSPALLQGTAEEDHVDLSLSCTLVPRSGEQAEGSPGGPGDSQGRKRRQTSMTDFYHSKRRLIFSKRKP

B1: Flag-RX50 (enzyme)
chain: MHGYFGCNAAAEPGYSAFVGTPQICVTKFSTRNCQGMDSVIKPLDTIPEDKKVRVQRTQSTFDPFEKPANQVKRVHSENNACINFKTSSTGKESPKVRRHSSPSSPTSPKFGKADSYEKLEKLGEGSYAYVYKGKSKVNGKLVALKVIRLQEEEGTPFTAIREASIIKGLKHANIVLLHDIIHTKETLTLVFEYYHTDLCQYMDKHPGGLHPDNVKLFLFQLLRGLSYIHQRYILHRDLKPGNLLISDTGELKLADFGLAKAKSVPSHTTSNEVVYLWYRPPDVLLGSTEYSTCLDMWGVGCIFVEMIQGVAAFPGMKDIQDQLERIFLVLGTPNEDTWPGVHSLPHFKPERFTLYSSKNLRQAWNKLSYVNHAEDLASKLLQCSPKNRLSAQAALSHEYFSDLPPRLWELTDMSSIFTVPNVRLQPEAGESMRAFGKNNSYGKSLSNSKH
notes: Expressed in transfected 293T cells; also called RX50 protein; not shown: N-terminal flag-tag from modified pcDNA3.1
Take B1: the binding result with p21-C and with p21-D3 was “no binding” throughout.
